In patent publication JP2015097496A (dated 2015):
Where a chain is given by its changes, count along the chain named. Names may count otherwise.

What was measured:
[1] = target: T1, Robo1 IG5-2ドメイン(B5209B抗体が認識するイムノグロブリン様ドメインの5番目) (Homo sapiens (Human), UniProt Q9Y6N7 455-543); test: co-crystal structure of scFv and IG5-2
T1 construct: Antigen fragment of Robo1 used in ITC and in the co-crystal structure
T1 sequence: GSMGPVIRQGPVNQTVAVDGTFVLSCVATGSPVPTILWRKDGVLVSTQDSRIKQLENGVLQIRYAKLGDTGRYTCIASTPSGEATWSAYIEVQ

[2] = target: T1, Robo1 …; test: ITC with molecular dynamics interpretation
[3] = target: T1, Robo1 …; test: ITC, thermodynamic parameters

B1: B5209B 一本鎖抗体(scFv) 野生型 (scFv)
scFv: MAEVQLVESGGGVVQPGGSLKLSCAASGFTFSTYDMSWVRQTPDKRLELVATINSNGGSTYYPDSVKGRFTSSRDNAKNILYLQMSSLKSEDTAMYYCAREALLRPPYYALDYWGQGTSVTVSSAGGGGSGGGGSGGGGSGGGGSDILDIQMTQSPASLSASVGETVTITCGASENIYGALTWYQRKQGKSPQLLIYGAINLADDKSSRFSGSGSGRQYSLKISSLHPDDVATYYCQNVLSTPFTFGSGTKLEIKAAGHHHHHH
notes: Expressed in E. coli Origami2(DE3) from pRA2; also called B5209B scFv; WT
binding result [1]: binds

B2: B5209B scFv HP103A変異体 (scFv)
scFv: QLVESGGGVVQPGGSLKLSCAASGFTFSTYDMSWVRQTPDKRLELVATINSNGGSTYYPDSVKGRFTSSRDNAKNILYLQMSSLKSEDTAMYYCAREALLRPAYYALDYWGQGTSVTVSSGGGGSGGGGSGGGGSGGGGSDIQMTQSPASLSASVGETVTITCGASENIYGALTWYQRKQGKSPQLLIYGAINLADDKSSRFSGSGSGRQYSLKISSLHPDDVATYYCQNVLSTPFTFGSGTKLEIKHHHHHH
binding result [2]: binds

B3: B5209B scFv LY30A変異体 (scFv)
scFv: B2 scFv with A103P, Y170A
binding result [3]: binds
